In the RNAGym collection of RNA variant scans (doi:10.1101/gr.219683.116):

B1: mRNA-splicing (parent)
chain: AGUUGCUGCUGGGAGCUCCAGCACAGUGAAAUGGACAGAAGGGCAGAGCAA

Variants of: B1
Test: exon inclusion enrichment index; higher = more inclusion; WT1 exon 5 minigene, HEK293

Variant | exon inclusion enrichment index
AGUUCUUCUCGGGAGCUCCAGCACCUUGAAAUGGACAGAAGGGCAGAGCAA [G5C C6U G8C C9U U10C A25C G26U] | 2.7
AGUUCUUCUCGGGAGCUCCAGCACCCUGAAAUGGACAGAAGGGCAGAGCAA [G5C C6U G8C C9U U10C A25C G26C] | 2.25
AGUUCUUCUCGGGAGCUCCAGCACAGUGAGAUGGACAGAAGGGCAGAGCAA [G5C C6U G8C C9U U10C A30G] | 2.12
AGUUCUUCUCGGGAGCUCCAGCACAGUGACAUGGACAGAAGGGCAGAGCAA [G5C C6U G8C C9U U10C A30C] | 2.23
AGUUCUUCUCGGGAGCUCCUCCACAGUGAAAUGGACAGAAGGGCAGAGCAA [G5C C6U G8C C9U U10C A20U G21C] | 1.62
AGUUCUUCUCGGGAGCUCCUUCACAGUGAAAUGGACAGAAGGGCAGAGCAA [G5C C6U G8C C9U U10C A20U G21U] | 1.12
AGUUCUUCUCGGGAGCUCCUACACAGUGAAAUGGACAGAAGGGCAGAGCAA [G5C C6U G8C C9U U10C A20U G21A] | 0.91
AGUUCUUGACGGGAGCUCCAGCACAGUGAAAUGGACAGAAGGGCAGAGCAA [G5C C6U C9A U10C] | 1.69
AGUUCUUCUCGGGAGCUCCAGCACAGUGAAAUGGACAGAAGGGCAGAGCAA [G5C C6U G8C C9U U10C] | 2.2
AGUUCUUCUAGGGAGCUCCAGCACAGUGAAAUGGACAGAAGGGCAGAGCAA [G5C C6U G8C C9U U10A] | 0.186
AGUUCGUGCCGGGAGCUCCAGCACAGUGAAAUGGACAGAAGGGCAGAGCAA [G5C C6G U10C] | 2.11
AGUUCUUCAAGGGAGCUCCAGCACAGUGAAAUGGACAGAAGGGCAGAGCAA [G5C C6U G8C C9A U10A] | 1.21
AGUUCUUCACGGGAGCUCCAGCACAGUGAAAUGGACAGAAGGGCAGAGCAA [G5C C6U G8C C9A U10C] | 2.36
AGUUCUUCAGGGGAGCUCCAGCACAGUGAAAUGGACAGAAGGGCAGAGCAA [G5C C6U G8C C9A U10G] | 0.812
AGUUCUUCUCGGGAGCUCCAGCACAGUGUGAUGGACAGAAGGGCAGAGCAA [G5C C6U G8C C9U U10C A29U A30G] | 2.16
AGUUCUUCUCGGGAGCUCCAGCACAGUGUUAUGGACAGAAGGGCAGAGCAA [G5C C6U G8C C9U U10C A29U A30U] | 0.629
AGUUCUUCUCGGGAGCUCCAGCACAGUGUCAUGGACAGAAGGGCAGAGCAA [G5C C6U G8C C9U U10C A29U A30C] | 1.51
AGUUCUUCUCGGGAGCUCCAGCCUAGUGAAAUGGACAGAAGGGCAGAGCAA [G5C C6U G8C C9U U10C A23C C24U] | 0.867
AGUUCUUCUCGGGAGCUCCAGCCAAGUGAAAUGGACAGAAGGGCAGAGCAA [G5C C6U G8C C9U U10C A23C C24A] | 2.31
AGUUCUUCUCGGGAGCUCCAGCCGAGUGAAAUGGACAGAAGGGCAGAGCAA [G5C C6U G8C C9U U10C A23C C24G] | 3.11
AGUUCUUCUCGGGAGCUCCAGCGCAGUGAAAUGGACAGAAGGGCAGAGCAA [G5C C6U G8C C9U U10C A23G] | 2.93
AGUUCUUCUCGGGAGCUCCAGCUCAGUGAAAUGGACAGAAGGGCAGAGCAA [G5C C6U G8C C9U U10C A23U] | 1.39
AGUUCUUCUCGGGAGCUCCAGCCCAGUGAAAUGGACAGAAGGGCAGAGCAA [G5C C6U G8C C9U U10C A23C] | 1.9
AGUUCUUCUCGGGAGCUCCAGCACUUUGAAAUGGACAGAAGGGCAGAGCAA [G5C C6U G8C C9U U10C A25U G26U] | 1.7
AGUUCUUCUCGGGAGCUCCAGCACUAUGAAAUGGACAGAAGGGCAGAGCAA [G5C C6U G8C C9U U10C A25U G26A] | 2.23
AGUUCUUCUCGGGAGCUCCAGCACUCUGAAAUGGACAGAAGGGCAGAGCAA [G5C C6U G8C C9U U10C A25U G26C] | 2.38

Variant | exon inclusion enrichment index
AGUUCGGGCCGGGAGCUCCAGCACAGUGAAAUGGACAGAAGGGCAGAGCAA [G5C C6G U7G U10C] | 1.51
AGUUCUUCCUGGGAGCUCCAGCACAGUGAAAUGGACAGAAGGGCAGAGCAA [G5C C6U G8C] | 1.8
AGUUCUUCGCGGGAGCUCCAGCACAGUGAAAUGGACAGAAGGGCAGAGCAA [G5C C6U G8C C9G U10C] | 3.48
AGUUCUUCGAGGGAGCUCCAGCACAGUGAAAUGGACAGAAGGGCAGAGCAA [G5C C6U G8C C9G U10A] | 3.12
AGUUCUUCGGGGGAGCUCCAGCACAGUGAAAUGGACAGAAGGGCAGAGCAA [G5C C6U G8C C9G U10G] | 3.42
AGUUCUUGCUGGGAGCUCCAGCACAGUGAAAUGGACAGAAGGGCAGAGCAA [G5C C6U] | 0.0627
AGUUCUUCUACGGAGCUCCAGCACAGUGAAAUGGACAGAAGGGCAGAGCAA [G5C C6U G8C C9U U10A G11C] | 1.84
AGUUCUUCUAAGGAGCUCCAGCACAGUGAAAUGGACAGAAGGGCAGAGCAA [G5C C6U G8C C9U U10A G11A] | 0.661
AGUUCUUCUAUGGAGCUCCAGCACAGUGAAAUGGACAGAAGGGCAGAGCAA [G5C C6U G8C C9U U10A G11U] | 0.953
AGUUCGGACCGGGAGCUCCAGCACAGUGAAAUGGACAGAAGGGCAGAGCAA [G5C C6G U7G G8A U10C] | 2.87
AGUUCGGACAGGGAGCUCCAGCACAGUGAAAUGGACAGAAGGGCAGAGCAA [G5C C6G U7G G8A U10A] | 0.218
AGUUCGGCUCGGGAGCUCCAGCACAGUGAAAUGGACAGAAGGGCAGAGCAA [G5C C6G U7G G8C C9U U10C] | 2.15
AGUUCUUCUCGGGAGCUCCAGCACAGUGGGAUGGACAGAAGGGCAGAGCAA [G5C C6U G8C C9U U10C A29G A30G] | 1.37
AGUUCUUCUCGGGAGCUCCAGCACAGUGGCAUGGACAGAAGGGCAGAGCAA [G5C C6U G8C C9U U10C A29G A30C] | 0.838
AGUUCUUCUCGGGAGCUCCAGCACAGUGGUAUGGACAGAAGGGCAGAGCAA [G5C C6U G8C C9U U10C A29G A30U] | 0.538
AGUUCUUAGCGGGAGCUCCAGCACAGUGAAAUGGACAGAAGGGCAGAGCAA [G5C C6U G8A C9G U10C] | 0.184
AGUUCGGUCCGGGAGCUCCAGCACAGUGAAAUGGACAGAAGGGCAGAGCAA [G5C C6G U7G G8U U10C] | 1.74
AGUUCUUAACGGGAGCUCCAGCACAGUGAAAUGGACAGAAGGGCAGAGCAA [G5C C6U G8A C9A U10C] | 0.564
AGUUCUUCUCGGGUACUCCAGCACAGUGAAAUGGACAGAAGGGCAGAGCAA [G5C C6U G8C C9U U10C A14U G15A] | 0.472
AGUUCUUCUCGGGUUCUCCAGCACAGUGAAAUGGACAGAAGGGCAGAGCAA [G5C C6U G8C C9U U10C A14U G15U] | 0.556
AGUUCUUCUCGGGUCCUCCAGCACAGUGAAAUGGACAGAAGGGCAGAGCAA [G5C C6U G8C C9U U10C A14U G15C] | 0.66
AGUUCUUCUCGGGCUCUCCAGCACAGUGAAAUGGACAGAAGGGCAGAGCAA [G5C C6U G8C C9U U10C A14C G15U] | 0.523
AGUUCUUCUCGGGCCCUCCAGCACAGUGAAAUGGACAGAAGGGCAGAGCAA [G5C C6U G8C C9U U10C A14C G15C] | 0.406
AGUUCUUCUCGGGCACUCCAGCACAGUGAAAUGGACAGAAGGGCAGAGCAA [G5C C6U G8C C9U U10C A14C G15A] | 0.459
AGUUCUUGGCGGGAGCUCCAGCACAGUGAAAUGGACAGAAGGGCAGAGCAA [G5C C6U C9G U10C] | 1.31
